Experimental data reported in publication PMC7181697 (2020).
Blank lines part the entries; values can stand above or below the binder they belong to.

How the values were obtained:
Assay in all cases: ITC
REV7^K129A = REV7^K129A (human, UniProt Q9UI95 1-211, K129A)
REV7^WT-REV3(1871–2021) = REV7^WT-REV3(1871–2021) (human, UniProt Q9UI95 1-211; O60673 1871-2021)
REV7^Y63A = REV7^Y63A (human, UniProt Q9UI95 1-211, Y63A)
REV7^W171A = REV7^W171A (human, UniProt Q9UI95 1-211, W171A)
Sequence of REV7^W171A (Q9UI95 whole entry W171A): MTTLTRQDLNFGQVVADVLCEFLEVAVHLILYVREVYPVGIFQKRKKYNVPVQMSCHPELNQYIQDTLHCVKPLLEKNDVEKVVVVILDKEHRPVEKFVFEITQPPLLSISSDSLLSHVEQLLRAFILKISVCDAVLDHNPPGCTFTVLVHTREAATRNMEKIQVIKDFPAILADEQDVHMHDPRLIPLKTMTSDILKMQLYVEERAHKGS

Sequence of REV7^K129A (Q9UI95 whole entry K129A): as the sequence (Q9UI95 whole entry W171A) above, with K129A, A171W counted along it
Sequence of REV7^Y63A (Q9UI95 whole entry Y63A): as the sequence (Q9UI95 whole entry W171A) above, with Y63A, A171W counted along it
Sequence of REV7^WT-REV3(1871–2021) (Q9UI95 whole entry, chain 1 of 2): as the sequence (Q9UI95 whole entry W171A) above, with A171W counted along it
Sequence of REV7^WT-REV3(1871–2021) (O60673 1871-2021, chain 2 of 2): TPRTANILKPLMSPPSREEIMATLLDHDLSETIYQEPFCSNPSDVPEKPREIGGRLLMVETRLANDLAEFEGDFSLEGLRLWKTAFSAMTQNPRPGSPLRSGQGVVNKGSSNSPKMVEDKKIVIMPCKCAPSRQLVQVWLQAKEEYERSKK

- Kd (REV7^K129A): 7.3 nM
B1: REV3(1847-1906) (domain or fragment)
chain: MLTPTPDSSPRSTSSPSQSKNGSFTPRTANILKPLMSPPSREEIMATLLDHDLSETIYQE

- Kd (REV7^WT-REV3(1871–2021)): 1600 nM
B2: cREV1 CTD (chimeric REV1 CTD: POL κ RIR fused to the N-terminus of REV1 CTD) (other)
chain: SHKKSFFDKKRSERKWGLSSLQSDPAGCVRPPAPNLAGAVEFNDVKTLLREWITTISDPMEEDILQVVKYCTDLIEEKDLEKLDLVIKYMKRLMQQSVESVWNMAFDFILDNVQVVLQQTYGSTLKVT

- Kd (REV7^Y63A): 160 nM
- Kd (REV7^W171A): 170 nM
- Kd (REV7^K129A): 4.8 nM
B3: SHLD3(1–82) with C-terminal His6-tag (domain or fragment)
chain: MTTEVILHYRPCESDPTQLPKIAEKAIQDFPTRPLSRFIPWFPYDGSKLPLRPKRSPPVISEEAAEDVKQYLTISEHDAKSH
